Data taken from patent US20240262791A1 (University of California, published 2024).
Like-named read-outs stand apart in the source and are kept apart here.

Assays:
[1] = biological target: T1, Mutated SARS-CoV-2 (COVID-19) S protein (RBD) N501Y (SARS-CoV-2, UniProt P0DTC2 319-537); experiment: BLI; KD column of Table 2 repeats Table 4
T1 construct: also called N501Y: UK strain

[2] = biological target: T2, Mutated SARS-CoV-2 (COVID-19) S protein (RBD), South African strain (K417N, E484K, N501Y) (SARS-CoV-2, UniProt P0DTC2 319-537); experiment: BLI; KD column of Table 2 repeats Table 4
T2 construct: also called K417N, E484K, N501Y: South Africa strain; B.1.351 lineage

[3] = biological target: T3, Spike RBD, WT (Example 7, Tables 4 and 2) (SARS-CoV-2, UniProt P0DTC2 319-541); experiment: BLI; KD column of Table 2 repeats Table 4
T3 construct: also called wildtype spike protein; Spike protein RBD

[4] = biological target: T4, Mutated SARS-CoV-2 (COVID-19) S protein (RBD) E484K (SARS-CoV-2, UniProt P0DTC2 319-537); experiment: BLI; KD column of Table 2 repeats Table 4
[5] = biological target: T5, Mutated SARS-CoV-2 (COVID-19) S protein (RBD) N439K (SARS-CoV-2, UniProt P0DTC2 319-537); experiment: BLI; KD column of Table 2 repeats Table 4
[6] = biological target: T6, Mutated SARS-CoV-2 (COVID-19) S protein (RBD) F490L (SARS-CoV-2, UniProt P0DTC2 319-537); experiment: BLI; KD column of Table 2 repeats Table 4
[7] = biological target: T2, Mutated SARS-CoV-2 (COVID-19) S protein …
[8] = biological target: T1, Mutated SARS-CoV-2 (COVID-19) S protein …; experiment: BLI, biotinylated SR4 on streptavidin sensor, spike RBD in solution, 1:1 fit
[9] = biological target: T2, Mutated SARS-CoV-2 (COVID-19) S protein …; experiment: as above
[10] = biological target: T3, Spike RBD, WT (Example 7, Tables 4 and …); experiment: as above
[11] = biological target: T4, Mutated SARS-CoV-2 (COVID-19) S protein …; experiment: as above
[12] = biological target: T5, Mutated SARS-CoV-2 (COVID-19) S protein …; experiment: as above
[13] = biological target: T6, Mutated SARS-CoV-2 (COVID-19) S protein …; experiment: as above

B1: Biotinylated SR4 (SR4 (5AzF) reacted with DBCO-biotin) (VHH)
VHH: QVQLVESGGGLVQAGGSLRLSCAASGFPVYSWNMWWYRQAPGKEREWVAAIESHGDSTRYADSVKGRFTISRDNAKNTVYLQMNSLKPEDTAVYYCYVWVGHTYYGQGTQVTVSA
notes: also called SR4 nanobody; biotin labeled SR4
B1 was tested. Which Kd [1] did it give?
Its Kd is 30.5 nM.

What about the Kd [2] of the same binder?
Its Kd is 57 nM.

What about the Kd [3] of the same binder?
The Kd was 17.9 nM.

What about the Kd [4] of the same binder?
Its Kd is 31.8 nM.

What about the Kd [5] of the same binder?
The Kd was 59.3 nM.

And the Kd [6]?
Its Kd is 42 nM.

And the Kd [7]?
The Kd was 57.4 nM.

What about the Kd [8] of the same binder?
The Kd was 30.5 nM.

What about the koff [8] of the same binder?
Its koff is 0.0027 s⁻¹.

And the kon [8]?
Its kon is 88600 M⁻¹ s⁻¹.

What about the Kd [9] of the same binder?
The Kd was 57 nM.

And the koff [9]?
Its koff is 0.00406 s⁻¹.

What about the kon [9] of the same binder?
Its kon is 70800 M⁻¹ s⁻¹.

And the Kd [10]?
The Kd was 17.9 nM.

And the koff [10]?
The koff was 0.00226 s⁻¹.

What about the kon [10] of the same binder?
Its kon is 126000 M⁻¹ s⁻¹.

And the Kd [11]?
The Kd was 31.8 nM.

What about the koff [11] of the same binder?
Its koff is 0.0034 s⁻¹.

What about the kon [11] of the same binder?
The kon was 107000 M⁻¹ s⁻¹.

What about the Kd [12] of the same binder?
The Kd was 59.3 nM.

And the koff [12]?
Its koff is 0.00595 s⁻¹.

What about the kon [12] of the same binder?
Its kon is 100000 M⁻¹ s⁻¹.

What about the Kd [13] of the same binder?
Its Kd is 42 nM.

What about the koff [13] of the same binder?
Its koff is 0.00476 s⁻¹.

And the kon [13]?
Its kon is 113000 M⁻¹ s⁻¹.
